In PMC4070425:

What was measured:
[1] = target: JR-CSF Env E647A (variant pseudovirus) (HIV-1 isolate JR-CSF)
[2] = target: JR-CSF Env E647G (variant pseudovirus) (HIV-1 isolate JR-CSF)
[3] = target: JR-CSF Env N611A (variant pseudovirus) (HIV-1 isolate JR-CSF)
[4] = target: JR-CSF Env N611D (variant pseudovirus) (HIV-1 isolate JR-CSF)
[5] = target: JR-CSF Env N637A (variant pseudovirus) (HIV-1 isolate JR-CSF)
[6] = target: JR-CSF Env N637K (variant pseudovirus) (HIV-1 isolate JR-CSF)
[7] = target: JR-CSF Env S613A (variant pseudovirus) (HIV-1 isolate JR-CSF)
[8] = target: JR-CSF Env T639A (variant pseudovirus) (HIV-1 isolate JR-CSF)
[9] = target: JR-CSF Env wild type (pseudovirus) (HIV-1 isolate JR-CSF) (UniProt P20871)
[10] = target: JR-FL Env E647A (variant pseudovirus) (HIV-1 isolate JR-FL)
[11] = target: JR-FL Env E647G (variant pseudovirus) (HIV-1 isolate JR-FL)
[12] = target: JR-FL Env N611A (variant pseudovirus) (HIV-1 isolate JR-FL)
[13] = target: JR-FL Env N611D (variant pseudovirus) (HIV-1 isolate JR-FL)
[14] = target: JR-FL Env N637A (variant pseudovirus) (HIV-1 isolate JR-FL)
[15] = target: JR-FL Env N637K (variant pseudovirus) (HIV-1 isolate JR-FL)
[16] = target: LAI Env A501T (variant virus) (HIV-1 strain LAI)
[17] = target: LAI Env E647A (variant virus) (HIV-1 strain LAI)
[18] = target: LAI Env E647G (variant virus) (HIV-1 strain LAI)
[19] = target: LAI Env N611A (variant virus) (HIV-1 strain LAI)
[20] = target: LAI Env N611D (variant virus) (HIV-1 strain LAI)
[21] = target: LAI Env N637A (variant virus) (HIV-1 strain LAI)
[22] = target: LAI Env N637K (variant virus) (HIV-1 strain LAI)
[23] = target: LAI Env wild type (virus) (HIV-1 strain LAI) (UniProt P03377)

Sequence of UniProt P20871 (P20871 32-848): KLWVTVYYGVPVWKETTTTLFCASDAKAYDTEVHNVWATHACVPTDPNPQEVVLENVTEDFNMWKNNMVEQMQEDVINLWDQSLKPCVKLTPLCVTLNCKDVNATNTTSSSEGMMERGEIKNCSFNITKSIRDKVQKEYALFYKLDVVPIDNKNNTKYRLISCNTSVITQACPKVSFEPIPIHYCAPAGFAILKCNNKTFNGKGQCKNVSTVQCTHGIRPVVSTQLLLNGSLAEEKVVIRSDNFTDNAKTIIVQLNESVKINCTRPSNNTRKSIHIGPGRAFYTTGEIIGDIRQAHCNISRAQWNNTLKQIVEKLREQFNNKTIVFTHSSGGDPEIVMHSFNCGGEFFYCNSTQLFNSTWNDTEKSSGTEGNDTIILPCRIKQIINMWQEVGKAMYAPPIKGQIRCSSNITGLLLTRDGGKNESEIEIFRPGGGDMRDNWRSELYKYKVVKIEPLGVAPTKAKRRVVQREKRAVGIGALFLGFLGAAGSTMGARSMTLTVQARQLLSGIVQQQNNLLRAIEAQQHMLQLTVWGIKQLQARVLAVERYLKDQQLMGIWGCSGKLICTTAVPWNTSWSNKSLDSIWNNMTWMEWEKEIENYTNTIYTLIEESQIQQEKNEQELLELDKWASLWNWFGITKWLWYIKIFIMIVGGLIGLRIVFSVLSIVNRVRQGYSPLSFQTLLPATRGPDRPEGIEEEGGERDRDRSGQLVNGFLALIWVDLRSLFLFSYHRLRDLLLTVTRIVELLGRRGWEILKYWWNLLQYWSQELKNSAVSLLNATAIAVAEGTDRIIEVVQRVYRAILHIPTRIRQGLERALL

Substance: PGT151 (antibody)
- %Maximum neutralization (JR-CSF) [1]: 33%
- %Maximum neutralization (JR-CSF) [2]: 7%
- %Maximum neutralization (JR-CSF) [3]: 44%
- %Maximum neutralization (JR-CSF) [4]: 0%
- %Maximum neutralization (JR-CSF) [5]: 50%
- %Maximum neutralization (JR-CSF) [6]: 20%
- %Maximum neutralization (JR-CSF) [7]: 41%
- %Maximum neutralization (JR-CSF) [8]: 52%
- %Maximum neutralization (JR-CSF) [9]: 93%
- %Maximum neutralization (JR-FL) [10]: 72%
- %Maximum neutralization (JR-FL) [11]: 94%
- %Maximum neutralization (JR-FL) [12]: 31%
- %Maximum neutralization (JR-FL) [13]: 8%
- %Maximum neutralization (JR-FL) [14]: 65%
- %Maximum neutralization (JR-FL) [15]: 33%
- %Maximum neutralization (LAI) [16]: 75%
- %Maximum neutralization (LAI) [17]: 96%
- %Maximum neutralization (LAI) [18]: 95%
- %Maximum neutralization (LAI) [19]: 81%
- %Maximum neutralization (LAI) [20]: 45%
- %Maximum neutralization (LAI) [21]: 70%
- %Maximum neutralization (LAI) [22]: 37%
- %Maximum neutralization (LAI) [23]: 100%
